Test results from paper PMC4733404 (Cell, 2016).

Target: EBOV GP, soluble form of the full-length extracellular domain (Zaire ebolavirus, strain  …, UniProt Q05320)
Assay: ELISA

Chain of EBOV GP, soluble form of the full-length extracellular domain (Q05320 33-650): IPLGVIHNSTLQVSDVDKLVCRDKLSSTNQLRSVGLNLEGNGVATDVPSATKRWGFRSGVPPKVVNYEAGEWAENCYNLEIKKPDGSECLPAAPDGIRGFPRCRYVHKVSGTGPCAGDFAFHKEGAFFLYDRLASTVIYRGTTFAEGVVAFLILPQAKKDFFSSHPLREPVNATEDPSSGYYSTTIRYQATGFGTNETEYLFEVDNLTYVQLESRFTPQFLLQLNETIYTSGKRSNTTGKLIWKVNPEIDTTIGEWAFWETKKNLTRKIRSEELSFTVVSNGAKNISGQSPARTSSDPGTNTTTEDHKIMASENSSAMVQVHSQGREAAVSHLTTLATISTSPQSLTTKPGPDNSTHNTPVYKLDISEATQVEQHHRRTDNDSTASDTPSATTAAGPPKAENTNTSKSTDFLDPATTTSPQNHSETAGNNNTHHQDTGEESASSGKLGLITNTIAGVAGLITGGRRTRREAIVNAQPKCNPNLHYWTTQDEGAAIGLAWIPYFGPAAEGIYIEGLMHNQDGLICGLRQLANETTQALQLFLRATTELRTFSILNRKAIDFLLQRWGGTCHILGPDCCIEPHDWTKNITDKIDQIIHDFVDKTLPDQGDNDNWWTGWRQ

B1: BDBV289, human mAb (antibody, V domains shown)
VH: QVQLVQSGAEVKKPGSSVKVSCKASGATFGSDTVTWVRQAPGQGLEWMGGIIPFFGEANYAQRFQGRVTITADKSTNTAYMELSSLRSEDTAVYFCARQINEMATFGEIHYYTYMDVWGQGTLVTVSS
VL: GSELTQDPAVSVALGQTVRITCQGDSLRNYYASWYQQKPRQAPVLVFYGKNNRPSGIPDRFSGSSSGNTASLTISGAQAEDEADYYCNSRDSSSNHLVFGGGTKLTVL
B1: binds.
